The source of these data is publication PMC3461310 (2013).

Where “and” joins values, the source holds several entries; their conditions need not be identical. Equal entries are not always repeated.

Assay [1] concerns the target thrombin ([6F]FFR-T) (Homo sapiens, UniProt P00734, active site labeled with 6-fluorescein-FFR, heparin (T·Hep complex)). Nature of the assay: fluorescence equilibrium binding.
For assay [2], the target named is thrombin ([4′F]FPR-T) (Homo sapiens, UniProt P00734, active site labeled with 4′-fluorescein-FPR, heparin (T·(Hep)2 complex)). The assay can be described thus: fluorescence equilibrium binding.
Assay [3] deals with thrombin ([4′F]FPR-T) (Homo sapiens, UniProt P00734, active site labeled with 4′-fluorescein-FPR, heparin (T·Hep complex)). The assay can be described thus: fluorescence equilibrium binding.
In assay [4] the target is thrombin ([6F]FFR-T) (Homo sapiens, UniProt P00734, active site labeled with 6-fluorescein-FFR, heparin (T·(Hep)2 complex)). The assay can be described thus: fluorescence equilibrium binding.
Assay [5] deals with thrombin (Homo sapiens, UniProt P00734, heparin (1 and 50 μM)). The assay can be described thus: inactivation kinetics with Hir-.
In assay [6] the target is thrombin ([4′F]FPR-T) (Homo sapiens, UniProt P00734, active site labeled with 4′-fluorescein-FPR). Nature of the assay: fluorescence equilibrium binding.

As usually defined, the Kd is the constant that tells how readily two partners part at equilibrium. A low value points to a tighter complex.

B1: heparin cofactor II (protein)
chain: GSKGPLDQLEKGGETAQSADPQWEQLNNKNLSMPLLPADFHKENTVTNDWIPEGEEDDDYLDLEKIFSEDDDYIDIVDSLSVSPTDSDVSAGNILQLFHGKSRIQRLNILNAKFAFNLYRVLKDQVNTFDNIFIAPVGISTAMGMISLGLKGETHEQVHSILHFKDFVNASSKYEITTIHNLFRKLTHRLFRRNFGYTLRSVNDLYIQKQFPILLDFKTKVREYYFAEAQIADFSDPAFISKTNNHIMKLTKGLIKDALENIDPATQMMILNCIYFKGSWVNKFPVEMTHNHNFRLNEREVVKVSMMQTKGNFLAANDQELDCDILQLEYVGGISMLIVVPHKMSGMKTLEAQLTPRVVERWQKSMTNRTREVLLPKFKLEKNYNLVESLKLMGIRMLFDKNGNMAGISDQRIAIDLFKHQGTITVNEEGTQATTVTTVGFMPLSTQVRFTVDRPFLFLIYEHRTSCLLFMGRVANPSRS
With B1, the Kd in assay [1] is 300 nM and 150 nM; in assay [2], 600 nM; in assay [3], 200 nM and 230 nM; in assay [4], 140 nM; in assay [5], 40 nM.

B2: prothrombin fragment 2 fragment 2 (protein)
chain: SEGSSVNLSPPLEQCVPDRGQQYQGRLAVTTHGLPCLAWASAQAKALSKHQDFNSAVQLVENFCRNPDGDEEGVWCYVAGKPGDFGYCDLNYCEEAVEEETGDGLDEDSDRAIEGRTATSEYQTFFNPR
With B2, binding in assay [6] was put at a Kd of 5000 nM.
